Results reported in patent US11447550B2, “Peptides for molecular detection of PD-L1” (THE CURATORS OF THE UNIVERSITY OF MISSOURI, priority 2016, dated 2022).
Ends that are not written are not given here.

Molecular target: PD-L1 (Homo sapiens, UniProt Q9NZQ7)
Experiment: Flow cytometry using cultured cell lines with Cy5-conjugated peptide
Format: cell-based
Set-up: Seven PD-L1 expressing NSCLC patient tissues were obtained from the MU OneHealth tissue bank; tissue MU OneHealth tissue bank; U.S. Biomax (TMA) LC1923; host or cells: FFPE placenta, seven NSCLC patient tissues, 192-case lung cancer tissue microarray, four Hodgkin's lymphoma cases
Conditions: for MFI relative to MDA-MB-231: all lower peptide concentrations, FIG. 6A
Experimental: Cell lines MDA-MB-231, Y79, and MCF-7 were purchased from ATCC, thawed, and grown in culture to confluency. When confluent, adherent cells were removed from the flask by scraping gently with a cell scraper and media removed using centrifugation. Suspension cells were pipetted from the flask and centrifuged to remove media. Cell lines were resuspended in Eppendorf tubes in 100 μL PBS at a concentration of 5×10^6 cells per mL. Cy5-conjugated peptide solution was then added to the tubes to make the desired concentration of peptide in 200 μL. Eppendorf tubes were then placed in the incubator for 1 hour and vortexed at the 30-minute mark. After 1 hour, cell lines were analyzed on a BD FACS Canto II, a 3-laser, 8-color flow cytometer (San Jose, Calif.) using Diva 8.0 acquisition and analysis software (San Jose, Calif.). The cells of interest were gated using Forward and Side scatter (FSC/SSC) and positive antibody expression. 10,000 singlet events were collected for each specimen.
RK-10-Cy5 was then investigated for PD-L1 specificity using flow cytometry in cultured cell lines and patient tissues. […] To set our conditions for flow cytometry, titrations of PD-L1 peptide using all three cell lines were first examined. In each of the samples double-positives were selected by analyzing expression of both cytokeratin (FITC channel) and PD-L1 (Cy5 channel) (FIG. 15). […] Samples containing 0.1 and 0.05 mg/mL concentrations were deemed to have fluorescence intensities too high for accurate analysis for each cell line. Y79 and MCF7 both have a much lower PD-L1 expression than MDA-MB-231, which correlates with expression seen using Cy5 conjugated peptide and comparing the cell lines with flow cytometry. […] The MCF7 sample containing 0.005 mg/ml was much higher than anticipated due to this sample being treated twice with peptide. 0.005 mg/mL was selected as optimal concentration based on these comparisons, and all subsequent flow cytometry experiments were performed using this concentration. Lung cancer cell lines A549 (low PD-L1) and HCC827 (high PD-L1) were investigated for PD-L1 expression using both phycoerythrin-conjugated cd274 and RK-10-Cy5 (FIG. 6B). Cell lines were cultured as before and treated with either antibody or peptide in buffer. […] The antibody associated fluorescence was higher than the peptide associated fluorescence in both samples, which is attributed to differences in titrating peptide and antibody.

PD-L1, sequence (Q9NZQ7 19-290): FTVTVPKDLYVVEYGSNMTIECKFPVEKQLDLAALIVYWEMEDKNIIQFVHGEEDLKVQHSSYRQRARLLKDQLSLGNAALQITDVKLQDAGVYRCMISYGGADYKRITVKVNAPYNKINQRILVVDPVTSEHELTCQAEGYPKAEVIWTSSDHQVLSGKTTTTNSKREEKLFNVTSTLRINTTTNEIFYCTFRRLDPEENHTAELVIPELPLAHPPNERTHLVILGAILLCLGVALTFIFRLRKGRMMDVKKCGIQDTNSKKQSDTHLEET

- MFI relative to MDA-MB-231 (MCF7 cells (no meaningful PD-L1 expression)): close to tenfold lower
- mean fluorescence intensity (MFI) (MDA-MB-231 cells (very high PD-L1), Cy5 channel, 0.005 mg/mL peptide, FIG. 7A): 9,448
- MFI relative to MDA-MB-231 (Y79 cells (no meaningful PD-L1 expression)): close to tenfold lower
- signal associated with PD-L1 expression, HCC827 versus A549 (lung cancer lines HCC827 (high PD-L1) vs A549 (low PD-L1), FIG. 6B): much higher signal
Substance: Cy5-GSGSGSTYLCGAISLAPKAQIKESL [RK-10-Cy5]
